Data on three substances can be found in paper PMC8385704.

ACE2-Fc fusion protein (extracellular domain of human ACE2 and the Fc region of human IgG1) (human), sequence (Q9BYF1 18-740): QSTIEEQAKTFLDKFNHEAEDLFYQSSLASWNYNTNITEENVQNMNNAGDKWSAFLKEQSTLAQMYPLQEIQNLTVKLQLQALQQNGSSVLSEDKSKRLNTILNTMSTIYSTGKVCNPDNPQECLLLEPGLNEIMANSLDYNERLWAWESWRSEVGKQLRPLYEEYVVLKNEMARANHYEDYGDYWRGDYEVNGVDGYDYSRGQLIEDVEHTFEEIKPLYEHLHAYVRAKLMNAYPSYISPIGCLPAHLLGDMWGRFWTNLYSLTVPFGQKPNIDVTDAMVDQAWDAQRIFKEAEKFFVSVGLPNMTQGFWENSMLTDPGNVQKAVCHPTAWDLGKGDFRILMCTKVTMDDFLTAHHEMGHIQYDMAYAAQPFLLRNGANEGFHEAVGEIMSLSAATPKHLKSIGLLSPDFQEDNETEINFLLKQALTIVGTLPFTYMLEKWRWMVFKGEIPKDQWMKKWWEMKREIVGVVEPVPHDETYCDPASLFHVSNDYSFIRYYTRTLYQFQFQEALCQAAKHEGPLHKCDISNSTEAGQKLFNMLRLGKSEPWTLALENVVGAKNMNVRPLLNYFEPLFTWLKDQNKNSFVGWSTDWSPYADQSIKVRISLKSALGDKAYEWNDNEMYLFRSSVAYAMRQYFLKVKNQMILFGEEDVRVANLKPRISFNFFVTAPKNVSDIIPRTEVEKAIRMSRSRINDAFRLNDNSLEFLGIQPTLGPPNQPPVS
recombinant S1-subunit or RBD of HCoV-NL63 (domain or fragment), sequence (Q6Q1S2 19-717 limits assumed): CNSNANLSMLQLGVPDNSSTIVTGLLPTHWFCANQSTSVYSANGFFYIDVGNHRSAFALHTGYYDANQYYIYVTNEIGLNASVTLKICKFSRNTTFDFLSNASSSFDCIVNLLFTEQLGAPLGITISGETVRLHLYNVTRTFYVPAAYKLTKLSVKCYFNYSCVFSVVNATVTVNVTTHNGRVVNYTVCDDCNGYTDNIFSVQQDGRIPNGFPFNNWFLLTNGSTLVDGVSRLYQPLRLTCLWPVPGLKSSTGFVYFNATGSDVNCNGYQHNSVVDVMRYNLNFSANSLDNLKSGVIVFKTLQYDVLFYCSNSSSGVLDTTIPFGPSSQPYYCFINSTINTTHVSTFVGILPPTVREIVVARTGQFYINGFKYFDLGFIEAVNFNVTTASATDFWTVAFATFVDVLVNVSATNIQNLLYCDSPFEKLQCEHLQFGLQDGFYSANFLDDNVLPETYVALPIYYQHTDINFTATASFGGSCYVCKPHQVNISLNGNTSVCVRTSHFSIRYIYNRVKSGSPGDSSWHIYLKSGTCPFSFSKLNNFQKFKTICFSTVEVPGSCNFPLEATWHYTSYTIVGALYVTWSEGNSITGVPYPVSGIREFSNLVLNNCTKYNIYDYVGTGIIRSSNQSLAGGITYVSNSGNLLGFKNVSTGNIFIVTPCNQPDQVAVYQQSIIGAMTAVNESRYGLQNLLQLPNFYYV

The experiment concerns the target ACE2-Fc fusion protein (extracellular domain of human ACE2 and the Fc region of human IgG1) (human) (UniProt Q9BYF1). Briefly: ELISA.
For orientation: EC50 means the midpoint of the concentration-response curve. Higher therefore signals a less potent agent. In turn, “recombinant S1-subunit or RBD of SARS-CoV-2 (domain or fragment)” displayed an EC50 of 0.0118 µM. Turning to “recombinant S1-subunit or RBD of HCoV-NL63 (domain or fragment)”, the EC50 was 0.0242 µM. “recombinant S1-subunit or RBD of SARS-CoV (domain or fragment)” showed an EC50 of 0.0011 µM.
